Data taken from patent US20160046689A1 (NOVELOGICS BIOTECHNOLOGY, published 2016).
One block for each binder: values may come before it.

Target: T1, recombinant extracellular alpha-3 domain of MICA (allele 001), Baculovirus-expressed, C-terminal His tag (human, UniProt Q29983 205-297)
T1 construct: Expressed in Sf9 cells and purified by Ni2+ chelation with 8M urea, then dialysed; also called alpha-3 domain MICA protein; target MICA alpha-3 domain recombinant protein
T1 sequence: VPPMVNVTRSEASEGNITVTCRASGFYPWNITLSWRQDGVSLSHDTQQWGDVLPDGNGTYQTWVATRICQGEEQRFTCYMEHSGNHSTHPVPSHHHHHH
Experiment: BLI (Octet RED96), antibody captured by anti-mouse IgG, antigen in solution, pH 7.4, 1:1 model
Method: Biomolecular interactions between antigen and antibody were directly measured by Bio-Layer Interferometry (BLI) using a Pall ForteBio Octet RED96 machine (Pall ForteBio, CA, USA). Real-time kinetic analyses were performed on the test MICA monoclonal antibodies 1F5 and 8C7, as well as two control antibodies, one of which could bind the alpha-3 MICA subdomain antigen (positive control) and one of which could not (negative control, binds other MICA subdomains), as previously determined by ELISA. The Octet RED96 apparatus operates under the principle of Bio-Layer Interferometry, a label-free technique that measures molecular interactions and complex formation. A key component of the technique is the optical biosensor whose tip is immersed in the fluids of the test well and then used to assay interference patterns between waves of light. Here, the ligand (monoclonal antibody) is localized to the surface of the biosensor through capture by previously bound anti-mouse IgG, while the analyte biomolecule (antigen) is kept in solution. Binding responses between ligand and analyte were measured and reported in real-time. Both association and dissociation kinetics were monitored and KD values were calculated. This model assumed a 1:1 interaction of ligand to analyte.

Kd: ~0.783 nM
B1: antibody 1F5 (antibody, IgG1, V domains shown)
VH: QIQLVQSGPELKKPGETVKISCKASGYTFTDYSVHWVKQAPGKGLKWMGWINTETGEPTYADDFKGRFAFSLETSASTAYLQINNLKNEDTATYFCARAGGNAFAYWGQGTLVTVSA
VL: DIVLTQSPASLAVSLGQRATISCRASKSVSTSGYSYMHWYQQKPGQPPKLLIYRASNLESGVPARFSGSGSGTDFTLNIHPVEEEDAATYYCQHSRELPLTFGAGTKLELKR
notes: Mouse hybridoma monoclonal, IgG1 heavy chain and kappa light chain; Tested as hybridoma supernatant in ELISA and FACS; also called IF5; antibody from clone 1F5

Kd: ~6.81 nM
B2: antibody 8C7 (antibody, IgG1, V domains shown)
VH: QIQLVQSGPELKKPGETVKISCKASGYTFTNYGMNWVKQAPGKGLKWMGWINTNTGEPTYAEEFKGRFAFSLETSASTAYLQINNLKNEDTATYFCARSGGSSPFAYWGQGTLVTVSA
VL: DIVMTQAAPSVPVTPGESVSISCRSSKSLLQSNGNTFLYWFMQRPGQSPQLLIYRMSNLASGVPDRFSGSGSGTAFTLRISRVEAEDVGVYYCMQHLEYPFTFGGGTKLEIKR
notes: Mouse hybridoma monoclonal, IgG1 heavy chain and kappa light chain; Tested as hybridoma supernatant in ELISA and FACS; also called antibody from clone 8C7; hybridoma clone 8C7
